Experimental data: IntAct's records for PubMed 11932251

B1: Regulator of chromosome condensation (Homo sapiens), P18754 (parent)
chain: MSPKRIAKRRSPPADAIPKSKKVKVSHRSHSTEPGLVLTLGQGDVGQLGLGENVMERKKPALVSIPEDVVQAEAGGMHTVCLSKSGQVYSFGCNDEGALGRDTSVEGSEMVPGKVELQEKVVQVSAGDSHTAALTDDGRVFLWGSFRDNNGVIGLLEPMKKSMVPVQVQLDVPVVKVASGNDHLVMLTADGDLYTLGCGEQGQLGRVPELFANRGGRQGLERLLVPKCVMLKSRGSRGHVRFQDAFCGAYFTFAISHEGHVYGFGLSNYHQLGTPGTESCFIPQNLTSFKNSTKSWVGFSGGQHHTVCMDSEGKAYSLGRAEYGRLGLGEGAEEKSIPTLISRLPAVSSVACGASVGYAVTKDGRVFAWGMGTNYQLGTGQDEDAWSPVEMMGKQLENRVVLSVSSGGQHTVLLVKDKEQS
partner: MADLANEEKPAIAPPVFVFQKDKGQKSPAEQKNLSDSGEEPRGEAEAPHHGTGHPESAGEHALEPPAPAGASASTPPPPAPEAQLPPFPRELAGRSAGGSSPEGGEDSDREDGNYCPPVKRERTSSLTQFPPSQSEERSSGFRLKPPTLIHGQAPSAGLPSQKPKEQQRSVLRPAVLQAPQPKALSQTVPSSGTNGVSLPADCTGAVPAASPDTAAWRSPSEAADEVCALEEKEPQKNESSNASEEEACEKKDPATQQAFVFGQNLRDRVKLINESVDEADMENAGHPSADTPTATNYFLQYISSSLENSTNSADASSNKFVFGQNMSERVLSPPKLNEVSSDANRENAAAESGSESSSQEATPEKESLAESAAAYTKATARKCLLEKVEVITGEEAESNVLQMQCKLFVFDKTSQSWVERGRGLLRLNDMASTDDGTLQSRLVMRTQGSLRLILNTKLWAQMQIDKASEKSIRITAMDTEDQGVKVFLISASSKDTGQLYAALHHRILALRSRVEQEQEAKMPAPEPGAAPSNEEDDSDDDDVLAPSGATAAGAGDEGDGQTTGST

Variants of: B1
Conditions: with ranb3_human RANBP3, Q9H6Z4

effect of a mutation on the interaction | Variant
disrupting interaction | MSPKRIAKRRSPPADAIPKSKKVKVSHRSHSTEPGLVLTLGQGDVGQLGLGENVMERKKPALVSIPEDVVQAEAGGMHTVCLSKSGQVYSFGCNDEGALGRDTSVEGSEMVPGKVELQEKVVQVSAGDSHTAALTDDGRVFLWGSFRDNNGVIGLLEPMKKSMVPVQVQLDVPVVKVASGNAHLVMLTADGDLYTLGCGEQGQLGRVPELFANRGGRQGLERLLVPKCVMLKSRGSRGHVRFQDAFCGAYFTFAISHEGHVYGFGLSNYHQLGTPGTESCFIPQNLTSFKNSTKSWVGFSGGQHHTVCMDSEGKAYSLGRAEYGRLGLGEGAEEKSIPTLISRLPAVSSVACGASVGYAVTKDGRVFAWGMGTNYQLGTGQDEDAWSPVEMMGKQLENRVVLSVSSGGQHTVLLVKDKEQS [D182A]
